Drawing on paper PMC7341804, this text covers stoichiometry N for one substance.

The target of this experiment is Arabinosyltransferase B (EmbB) from Mycobacterium smegmatis (Mycobacterium smegmatis) (UniProt Q50395). Description: native MS; EmbB in 0.2 M ammonium acetate pH 6.8 with 0.01% C12E8 detergent; Q-Exactive HF Orbitrap UHMR, HCD 150 V, capillary 300 °C.

One may read the stoichiometry N as the number of molecules, sites or subunits per partner or assembly. Turning to “Arabinosyltransferase B (EmbB) from Mycobacterium smegmatis (from UniProt Q50395 1-1082) (enzyme)”, the stoichiometry N was 2.
